Source: publication PMC8939814

Biological target: CXCR2 (human) (UniProt P25025)
UniProt P25025, sequence (P25025 whole entry): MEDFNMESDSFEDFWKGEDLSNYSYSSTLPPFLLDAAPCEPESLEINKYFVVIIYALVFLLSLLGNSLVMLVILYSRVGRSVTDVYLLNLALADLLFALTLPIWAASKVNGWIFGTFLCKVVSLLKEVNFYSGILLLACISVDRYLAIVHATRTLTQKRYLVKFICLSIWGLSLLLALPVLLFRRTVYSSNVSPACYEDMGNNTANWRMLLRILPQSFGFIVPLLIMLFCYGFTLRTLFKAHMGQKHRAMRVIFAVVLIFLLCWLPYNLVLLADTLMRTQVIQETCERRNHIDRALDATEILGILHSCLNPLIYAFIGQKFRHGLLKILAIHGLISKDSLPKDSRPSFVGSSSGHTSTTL

Substance | IP accumulation (G protein signaling, Gqi4myr) in transfected COS-7 cells, agonism at 1 μM (% of the efficacy of CXCL8 on CXCR2) | IP accumulation (G protein signaling, Gqi4myr) in transfected COS-7 cells, agonism at 1 μM (% of the maximal activity of CXCL8)
vCXCL1_(GT5 (4–97)), N-terminally truncated vCXCL1GT5 (domain or fragment) | 31 | 
vCXCL1GT5, the non-ELR CXC chemokine encoded by HCMV UL146 genotype 5 (Davis strain), wild type (1–97) (ligand) |  | 60
vCXCL1_(GT5 (6–97)), N-terminally truncated vCXCL1GT5 (domain or fragment) | 29 | 
